B1: bovine FXa (activated bovine clotting factor X) (protein)
chain: ANSFLEEVKQGNLERECLEEACSLEEAREVFEDAEQTDEFWSKYKDGDQCEGHPCLNQGHCKDGIGDYTCTCAEGFEGKNCEFSTREICSLDNGGCDQFCREERSEVRCSCAHGYVLGDDSKSCVSTERFPCGKFTQGRSRRWAIHTSEDALDASELEHYDPADLSPTESSLDLLGLNRTEPSAGEDGSQVVRIVGGRDCAEGECPWQALLVNEENEGFCGGTILNEFYVLTAAHCLHQAKRFTVRVGDRNTEQEEGNEMAHEVEMTVKHSRFVKETYDFDIAVLRLKTPIRFRRNVAPACLPEKDWAEATLMTQKTGIVSGFGRTHEKGRLSSTLKMLEVPYVDRSTCKLSSSFTITPNMFCAGYDTQPEDACQGDSGGPHVTRFKDTYFVTGIVSWGEGCARKGKFGVYTKVSNFLKWIDKIMKARAGAAGSRGHSEAPATWTVPPPLPL

Assays:
human C3 = human C3 (UniProt P01024)

Sequence of human C3, P01024 (P01024 whole entry, looked up): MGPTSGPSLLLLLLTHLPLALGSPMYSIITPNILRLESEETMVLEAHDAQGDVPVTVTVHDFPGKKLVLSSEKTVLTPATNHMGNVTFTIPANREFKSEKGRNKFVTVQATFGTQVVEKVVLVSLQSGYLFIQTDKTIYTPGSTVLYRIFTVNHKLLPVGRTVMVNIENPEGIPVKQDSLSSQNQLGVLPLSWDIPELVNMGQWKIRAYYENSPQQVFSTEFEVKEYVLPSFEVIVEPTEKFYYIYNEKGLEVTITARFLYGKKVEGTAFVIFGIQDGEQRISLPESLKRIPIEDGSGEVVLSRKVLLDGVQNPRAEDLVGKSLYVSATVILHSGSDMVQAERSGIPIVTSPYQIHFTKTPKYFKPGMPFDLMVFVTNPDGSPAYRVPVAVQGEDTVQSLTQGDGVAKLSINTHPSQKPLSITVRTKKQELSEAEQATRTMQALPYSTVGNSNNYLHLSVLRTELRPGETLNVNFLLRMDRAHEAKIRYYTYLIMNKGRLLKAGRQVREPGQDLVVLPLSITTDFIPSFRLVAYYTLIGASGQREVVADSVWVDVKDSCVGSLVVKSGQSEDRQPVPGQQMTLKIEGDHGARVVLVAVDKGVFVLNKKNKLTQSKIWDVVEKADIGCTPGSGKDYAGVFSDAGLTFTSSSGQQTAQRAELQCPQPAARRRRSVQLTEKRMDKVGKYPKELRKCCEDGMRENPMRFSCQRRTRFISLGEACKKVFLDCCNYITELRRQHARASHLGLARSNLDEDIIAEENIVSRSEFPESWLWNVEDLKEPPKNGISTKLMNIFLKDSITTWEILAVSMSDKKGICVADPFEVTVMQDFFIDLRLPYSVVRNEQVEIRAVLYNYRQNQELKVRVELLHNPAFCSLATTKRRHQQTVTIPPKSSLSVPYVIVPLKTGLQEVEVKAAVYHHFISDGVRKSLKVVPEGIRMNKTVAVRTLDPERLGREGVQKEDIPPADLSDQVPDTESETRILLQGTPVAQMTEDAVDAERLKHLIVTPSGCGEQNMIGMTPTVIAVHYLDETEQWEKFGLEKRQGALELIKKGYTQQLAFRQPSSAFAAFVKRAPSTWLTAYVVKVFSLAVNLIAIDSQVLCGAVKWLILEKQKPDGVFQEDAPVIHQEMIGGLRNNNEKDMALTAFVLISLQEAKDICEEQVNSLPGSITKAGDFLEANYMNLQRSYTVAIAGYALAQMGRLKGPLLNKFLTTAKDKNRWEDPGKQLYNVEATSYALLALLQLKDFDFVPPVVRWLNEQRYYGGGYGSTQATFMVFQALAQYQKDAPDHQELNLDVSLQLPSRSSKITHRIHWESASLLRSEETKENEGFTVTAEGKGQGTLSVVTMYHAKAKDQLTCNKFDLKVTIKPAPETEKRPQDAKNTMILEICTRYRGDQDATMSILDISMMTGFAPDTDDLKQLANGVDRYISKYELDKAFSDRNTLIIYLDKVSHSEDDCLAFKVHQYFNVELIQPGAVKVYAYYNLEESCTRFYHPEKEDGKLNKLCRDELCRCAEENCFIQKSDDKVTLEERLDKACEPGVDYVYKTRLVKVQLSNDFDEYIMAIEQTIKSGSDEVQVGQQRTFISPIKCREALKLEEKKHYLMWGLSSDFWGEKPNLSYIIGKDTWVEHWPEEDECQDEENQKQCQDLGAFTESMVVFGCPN

Molecule | cleavage of the C3 alpha chain to the a' chain (Western blot) (human C3) | cleavage of the C3 alpha chain to the a' chain (Western blot) (human C3, P01024)
human FCXIa (activated form of human clotting factor XI) | can cleave C3 in vitro in the absence of any complement proteases | 
human FXa (activated form of human clotting factor X) | can cleave C3 in vitro in the absence of any complement proteases | 
B1 |  | can cleave C3 in vitro in the absence of any complement proteases

From patent publication US20240293465A1
